The text below walks through data of paper PMC6326811.

This test has as its target FLAG-HA-tagged full-length wild-type TOE1 (human) (UniProt Q96GM8). Description: co-IP; IP-TRAP: lysates of 293T cells transiently expressing FLAG-HA-tagged proteins incubated with anti-FLAG M2 beads at 4°C for 2 h; telomerase in the eluates read by its activity (Q-TRAP).

“active telomerase (endogenous telomerase holoenzyme of 293T cells) (from UniProt O14746 1-1132) (complex)” showed a telomerase activity brought down, relative to FLAG-TCAB1 (fraction of FLAG-TCAB1) of 0.33.
